The target in assay [1] is T1, LY75 (DEC-205) on COLO205 cells (human, UniProt O60449 28-1722).
T1 construct: also called Lymphocyte antigen 75
In words: competitive FACS on COLO205 cells. The procedure: COLO205 cells (ATCC, catalog # CCL-222) were detached from tissue culture flasks with Cell Stripper (Cellgro, catalog # MT-25-056CI). Cells were washed and resuspended in FACS buffer (PBS+2% FBS), neutralized with growth media, and counted. Cells were plated at 50,000 cells per well in a V Bottom 96-well plate. Cells were washed once with FACS buffer (PBS (Fisher, catalog # SH30028-03)+2% FBS). An anti-LY75-mAb (Selected from Example 1) or LY75_A1 was added to wells starting at 250 nM and diluted serially 3 fold and applied to the relevant wells for 45 minutes on ice. Test wells that required single or multiple staining steps were left in FACS buffer as appropriate to ensure the final staining was completed simultaneously for all conditions tested. Two wells were left unstained in FACS buffer as controls.
After the incubation with blocking antibody, cells were washed twice in FACS buffer. The cells were resuspended in FACS buffer containing the anti-LY75-mAb conjugated to MCC-DM1 (1 nM) and incubated on ice for 45 minutes. The cells were washed as above and resuspended in FACS buffer plus 1 ug/ml mouse anti-maytansine antibody and incubated in ice for 45 minutes. […] Mean fluorescence intensity of each sample was determined using a Guava EasyCyte Plus HT Flow Cytometer (96 well plate formats) and the raw data was analyzed using the Guava Cytosoft.

In a further assay the target is T2, RHFVSLCQ
T2 construct: 8mer of LY75 on the peptide microarray, chart Region 6
T2 peptide: RHFVSLCQ
In words: peptide microarray of 8mer LY75 peptides.

The target of another assay is T3, SLCQKYSE
T3 construct: 8mer of LY75 on the peptide microarray, chart Region 6
T3 peptide: SLCQKYSE
Description: peptide microarray of 8mer LY75 peptides.

In a further assay the target is T4, LCQKYSEV
T4 construct: 8mer of LY75 on the peptide microarray, chart Region 6
T4 peptide: LCQKYSEV
Description: peptide microarray of 8mer LY75 peptides.

The next assay deals with T5, CQKYSEVK
T5 construct: 8mer of LY75 on the peptide microarray, chart Region 6
T5 peptide: CQKYSEVK
Description: peptide microarray of 8mer LY75 peptides.

In a further assay the target is T6, QKYSEVKS
T6 construct: 8mer of LY75 on the peptide microarray, chart Region 6
T6 peptide: QKYSEVKS
Description: peptide microarray of 8mer LY75 peptides.

The next assay concerns the target T7, NLYKIIPK
T7 construct: 8mer of LY75 on the peptide microarray, chart Region 7
T7 peptide: NLYKIIPK
Description: peptide microarray of 8mer LY75 peptides.

In another assay the target is T8, KIIPKTLT
T8 construct: 8mer of LY75 on the peptide microarray, chart Region 7
T8 peptide: KIIPKTLT
In words: peptide microarray of 8mer LY75 peptides.

The target in a further assay is T9, IIPKTLTW
T9 construct: 8mer of LY75 on the peptide microarray, chart Region 7
T9 peptide: IIPKTLTW
In words: peptide microarray of 8mer LY75 peptides.

A further assay has as its target T10, PKTLTWHS
T10 construct: 8mer of LY75 on the peptide microarray, chart Region 7
T10 peptide: PKTLTWHS
Description: peptide microarray of 8mer LY75 peptides.

A further assay has as its target T11, KTLTWHSA
T11 construct: 8mer of LY75 on the peptide microarray, chart Region 7
T11 peptide: KTLTWHSA
Description: peptide microarray of 8mer LY75 peptides.

The target of another assay is T12, WIQYKGHC
T12 construct: 8mer of LY75 on the peptide microarray, chart Region 10
T12 peptide: WIQYKGHC
Description: peptide microarray of 8mer LY75 peptides.

Assay [2] deals with Contiguous 8mer peptides of LY75 protein spanning residues 216 to 1666 of the full length LY75 protein. Description: peptide microarray, 1 ug/mL LY75_A1, anti-human IgG Alexa 647.
The target in assay [3] is T13, LY75 Region 4 (aa883-901) (human).
T13 construct: Region made up of overlapping 8mers on the array
T13 peptide: DDHFTYSRYPWHRFPVTFG
Description: peptide microarray; signal above the cut off of 3000.

The target in assay [4] is T14, LY75 Region 5 (aa1029-1040) (human).
T14 construct: Region made up of overlapping 8mers on the array
T14 peptide: RELTYSNFHPLL
The assay is described as above.

The target in assay [5] is T15, LY75 Region 6 (aa1077-1093) (human).
T15 construct: Region made up of overlapping 8mers on the array
T15 peptide: FTSCSERHFVSLCQKYS
The assay is described as above.

Assay [6] concerns the target T16, LY75 Region 7 (aa1107-1118) (human).
T16 construct: Region made up of overlapping 8mers on the array
T16 peptide: TVKYLNNLYKII
The description is as above.

In assay [7] the target is T17, LY75 Region 3 (aa761-780) (human).
T17 construct: Region made up of overlapping 8mers on the array
T17 peptide: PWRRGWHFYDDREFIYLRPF
Described as above.

The target in assay [8] is Contiguous 8mer peptides of LY75 protein spanning residues 216 to 1666 of the full length LY75 protein. In words: peptide microarray, 1 ug/mL LY75_A1, anti-human IgG Alexa 647; the peptide is not named.
The next assay concerns the target T18, RELTYSNF
T18 construct: 8mer of LY75 on the peptide microarray, chart Region 5
T18 peptide: RELTYSNF
Description: peptide microarray of 8mer LY75 peptides, LY75_A1 at 1 µg/mL, anti-human IgG Alexa 647. The procedure: (§1) The peptide microarray analysis was performed by LC Sciences, Houston Tex., in brief the method comprised the following steps:—Contiguous 8mer peptides of LY75 protein having […] spanning residues 216 to 1666 of the full length LY75 protein were synthesized and immobilized on a microarray chip. The chip comprised three panels such that the experiment was performed in triplicate. The microarray was addressed with LY75_A1 to identify the peptides to which the antibody bound. The binding assay was performed under the following conditions:—
(§2) The microarray comprising the contiguous peptides in triplicate was washed with 1 mL of binding buffer at 4° C. for 20 min. It was then incubated with 1 μg/mL LY75_A1 in binding buffer (pH 7.0) at 4° C. for 2 hrs. The array was again washed with 0.5 mL of washing buffer at 4° C. for 30 min then incubated with 25 ng/mL anti-human IgG Alexa 647 conjugate in binding buffer (pH 7.0) at 4° C. for 1 hr. The array was again washed with 0.5 mL of washing buffer at 4° C. for 30 min.

A further assay concerns the target T19, LTYSNFHP
T19 construct: 8mer of LY75 on the peptide microarray, chart Region 5
T19 peptide: LTYSNFHP
Described as above. Here is the method:
as §1, §2

Another assay deals with T20, SRWIQYKG
T20 construct: 8mer of LY75 on the peptide microarray, chart Region 10
T20 peptide: SRWIQYKG
The assay is described as above. The procedure: as §1, §2

T1 sequence (O60449 28-1722 limits assumed): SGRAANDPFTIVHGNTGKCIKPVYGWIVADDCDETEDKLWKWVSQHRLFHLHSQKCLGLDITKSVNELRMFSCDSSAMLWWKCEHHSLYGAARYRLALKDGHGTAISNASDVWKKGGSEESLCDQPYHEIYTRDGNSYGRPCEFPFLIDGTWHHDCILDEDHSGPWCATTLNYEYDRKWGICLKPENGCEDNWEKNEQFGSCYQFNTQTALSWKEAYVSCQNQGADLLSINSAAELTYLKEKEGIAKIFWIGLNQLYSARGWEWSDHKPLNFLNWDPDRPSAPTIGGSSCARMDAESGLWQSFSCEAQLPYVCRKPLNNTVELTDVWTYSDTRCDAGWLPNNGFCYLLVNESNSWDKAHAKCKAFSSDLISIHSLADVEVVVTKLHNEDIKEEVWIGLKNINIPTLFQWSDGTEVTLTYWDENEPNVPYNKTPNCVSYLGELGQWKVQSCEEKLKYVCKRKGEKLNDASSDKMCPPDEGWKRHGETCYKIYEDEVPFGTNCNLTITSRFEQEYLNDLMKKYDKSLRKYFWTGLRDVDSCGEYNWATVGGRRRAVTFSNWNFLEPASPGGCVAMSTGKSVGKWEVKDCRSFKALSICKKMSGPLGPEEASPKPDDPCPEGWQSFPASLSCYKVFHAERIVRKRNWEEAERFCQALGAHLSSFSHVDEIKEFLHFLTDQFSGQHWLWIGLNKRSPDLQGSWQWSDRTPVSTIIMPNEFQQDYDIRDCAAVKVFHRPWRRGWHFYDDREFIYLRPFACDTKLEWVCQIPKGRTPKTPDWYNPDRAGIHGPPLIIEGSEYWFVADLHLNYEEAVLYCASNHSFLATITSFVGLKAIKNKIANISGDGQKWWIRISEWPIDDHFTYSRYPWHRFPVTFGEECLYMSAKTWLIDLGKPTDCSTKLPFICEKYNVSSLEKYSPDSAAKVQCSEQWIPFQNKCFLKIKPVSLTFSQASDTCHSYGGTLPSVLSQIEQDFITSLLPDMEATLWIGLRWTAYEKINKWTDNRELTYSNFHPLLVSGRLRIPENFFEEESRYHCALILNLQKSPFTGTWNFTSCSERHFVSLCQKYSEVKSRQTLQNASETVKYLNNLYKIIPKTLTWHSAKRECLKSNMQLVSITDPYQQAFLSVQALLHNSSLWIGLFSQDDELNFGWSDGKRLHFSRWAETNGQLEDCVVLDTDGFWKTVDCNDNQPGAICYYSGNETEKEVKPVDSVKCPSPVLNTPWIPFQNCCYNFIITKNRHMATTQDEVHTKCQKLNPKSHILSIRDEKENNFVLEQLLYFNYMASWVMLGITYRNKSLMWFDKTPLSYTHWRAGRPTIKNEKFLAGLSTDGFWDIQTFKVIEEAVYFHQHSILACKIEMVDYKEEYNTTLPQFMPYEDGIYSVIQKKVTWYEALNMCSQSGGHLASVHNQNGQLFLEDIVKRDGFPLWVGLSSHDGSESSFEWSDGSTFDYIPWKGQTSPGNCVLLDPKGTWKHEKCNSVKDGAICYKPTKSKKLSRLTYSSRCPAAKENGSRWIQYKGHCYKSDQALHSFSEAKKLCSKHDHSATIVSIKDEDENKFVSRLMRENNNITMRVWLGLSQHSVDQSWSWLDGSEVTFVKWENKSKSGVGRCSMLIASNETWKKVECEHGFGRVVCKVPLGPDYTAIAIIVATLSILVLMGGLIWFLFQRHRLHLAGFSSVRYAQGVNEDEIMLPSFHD

B1: LY75_A1 (antibody, V domains shown)
VH: EVQLVESGGGLVKPGGSLRLSCAASGFTYSNAWMSWVRQAPGKGLEWVGRIKSKTDGGTTDYAAPVQGRFTISRDDSKNTLYLQMNSLKTEDTAVYYCTIFGVVSFDYWGQGTLVTVSS
VL: DVQMTQSPSSLSASVGDRVTITCRASQSISDYLSWYQQRPGKAPNLLIYAASNLKTGVPSRFSGSGSGTDFTLTISTLQPEDFATYYCQQSYRSPWTFGQGTKVEIKR
notes: detected with anti-human IgG in the microarray; also called antibody LY75_A1; LY75_A1 monoclonal antibody
In the case of B1, the binding result in assay [1] is on record as “binds”; with RHFVSLCQ, “no binding (tested: 1 µg/mL)”; with SLCQKYSE, “no binding (tested: 1 µg/mL)”; with LCQKYSEV it was “no binding (tested: 1 µg/mL)”; in the assay with CQKYSEVK, “no binding (tested: 1 µg/mL)”; in the assay with QKYSEVKS, “no binding (tested: 1 µg/mL)”. Moreover, the binding result with NLYKIIPK, with KIIPKTLT, in the assay with IIPKTLTW, with PKTLTWHS, in the assay with KTLTWHSA and in the assay with WIQYKGHC was “no binding (tested: 1 µg/mL)” throughout. Moreover, the binding result (in assay [3]; in [4]; in assay [5]; in [6]; in assay [7]; with RELTYSNF) was “binds” throughout. Moreover, the binding result with LTYSNFHP and with SRWIQYKG was “binds” each time. In assay [2], this molecule returned an average signal for all spots on the array (signal intensity (scale 1-65535)) of 885. The same molecule registered a maximum signal (signal intensity (scale 1-65535)) in assay [8] of 25000.

The record behind these values is patent publication US20200040086A1 (BERLIN CHEMIE, published 2020).
